{
  "source": "paper PMC5562721",
  "target": "Recombinant Ebola virus (EBOV) glycoprotein (Ebola virus (Zaire ebolavirus)) (UniProt Q05320)",
  "experiment": "SEC + cross-linking",
  "data": [
    {"substance": "Recombinant Ebola virus (EBOV) glycoprotein (from UniProt Q05320) (natural protein)", "values": [
      {"measurement": "stoichiometry N", "value": 3}
    ]}
  ]
}
